Experimental findings from patent publication US20210403506A1 (XDCEXPLORER SHANGHAI, published 2021) are described below.

T1: human Chemokine like receptor 1 (human, UniProt Q99788 1-373)
T1 sequence (looked up): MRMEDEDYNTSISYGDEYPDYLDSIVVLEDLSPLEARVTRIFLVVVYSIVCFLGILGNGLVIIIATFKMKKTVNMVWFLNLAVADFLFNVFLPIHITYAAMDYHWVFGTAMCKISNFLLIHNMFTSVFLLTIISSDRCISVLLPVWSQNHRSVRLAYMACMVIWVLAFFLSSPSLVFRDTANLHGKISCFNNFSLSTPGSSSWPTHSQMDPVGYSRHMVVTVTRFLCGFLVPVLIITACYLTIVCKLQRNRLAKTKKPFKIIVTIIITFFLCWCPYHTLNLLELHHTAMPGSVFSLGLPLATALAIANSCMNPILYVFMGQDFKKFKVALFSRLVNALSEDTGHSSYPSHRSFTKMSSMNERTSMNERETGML

B1: YW-117 (peptide)
peptide: [dY]FLP[dS]Q[1Nal][dA][Tic]S-OH
modifications: N-terminus assumed
SMILES: CC(C)C[C@H](NC(=O)[C@H](Cc1ccccc1)NC(=O)[C@H](N)Cc1ccc(O)cc1)C(=O)N1CCC[C@H]1C(=O)N[C@H](CO)C(=O)N[C@@H](CCC(N)=O)C(=O)N[C@@H](Cc1cccc2ccccc12)C(=O)N[C@H](C)C(=O)N1Cc2ccccc2C[C@H]1C(=O)N[C@@H](CO)C(=O)O
B2: YW-78 (peptide)
peptide: Diphenylacetyl-[dY]FLP[dS]QF[dA][Tic]S-OH
SMILES: CC(C)C[C@H](NC(=O)[C@H](Cc1ccccc1)NC(=O)[C@@H](Cc1ccc(O)cc1)NC(=O)C(c1ccccc1)c1ccccc1)C(=O)N1CCC[C@H]1C(=O)N[C@H](CO)C(=O)N[C@@H](CCC(N)=O)C(=O)N[C@@H](Cc1ccccc1)C(=O)N[C@H](C)C(=O)N1Cc2ccccc2C[C@H]1C(=O)N[C@@H](CO)C(=O)O
B3: YW-115 (peptide)
peptide: [dY]FL[Aze][dS]QF[dA][Tic]S-OH
modifications: N-terminus assumed
SMILES: CC(C)C[C@H](NC(=O)[C@H](Cc1ccccc1)NC(=O)[C@H](N)Cc1ccc(O)cc1)C(=O)N1CC[C@H]1C(=O)N[C@H](CO)C(=O)N[C@@H](CCC(N)=O)C(=O)N[C@@H](Cc1ccccc1)C(=O)N[C@H](C)C(=O)N1Cc2ccccc2C[C@H]1C(=O)N[C@@H](CO)C(=O)O
B4: YW-154 (peptide)
peptide: [dNMeY]FLP[dS]QF[dA][dTi1c]S-OH
modifications: reading uncertain; also: printed as (D-NMe-Tyr)-Phe-Leu-Pro-(D-Ser)-Gln-Phe-(D-Ala)-(D-Ti1c)-Ser
B5: YW-71 (peptide)
peptide: Hydrocinnamoyl-[dY]FLP[dS]QF[dA][Tic]S-OH
SMILES: CC(C)C[C@H](NC(=O)[C@H](Cc1ccccc1)NC(=O)[C@@H](Cc1ccc(O)cc1)NC(=O)CCc1ccccc1)C(=O)N1CCC[C@H]1C(=O)N[C@H](CO)C(=O)N[C@@H](CCC(N)=O)C(=O)N[C@@H](Cc1ccccc1)C(=O)N[C@H](C)C(=O)N1Cc2ccccc2C[C@H]1C(=O)N[C@@H](CO)C(=O)O
B6: YW-149 (peptide)
peptide: [dY]FLP[dS]QF[dA][dTic]S-OH
modifications: N-terminus assumed
SMILES: CC(C)C[C@H](NC(=O)[C@H](Cc1ccccc1)NC(=O)[C@H](N)Cc1ccc(O)cc1)C(=O)N1CCC[C@H]1C(=O)N[C@H](CO)C(=O)N[C@@H](CCC(N)=O)C(=O)N[C@@H](Cc1ccccc1)C(=O)N[C@H](C)C(=O)N1Cc2ccccc2C[C@@H]1C(=O)N[C@@H](CO)C(=O)O
B7: YW-114 (peptide)
peptide: [dY]FL[Thz][dS]QF[dA][Tic]S-OH
modifications: N-terminus assumed
SMILES: CC(C)C[C@H](NC(=O)[C@H](Cc1ccccc1)NC(=O)[C@H](N)Cc1ccc(O)cc1)C(=O)N1CSC[C@H]1C(=O)N[C@H](CO)C(=O)N[C@@H](CCC(N)=O)C(=O)N[C@@H](Cc1ccccc1)C(=O)N[C@H](C)C(=O)N1Cc2ccccc2C[C@H]1C(=O)N[C@@H](CO)C(=O)O
B8: YW-118 (peptide)
peptide: [dY]FLP[dS]Q[2Nal][dA][Tic]S-OH
modifications: N-terminus assumed
SMILES: CC(C)C[C@H](NC(=O)[C@H](Cc1ccccc1)NC(=O)[C@H](N)Cc1ccc(O)cc1)C(=O)N1CCC[C@H]1C(=O)N[C@H](CO)C(=O)N[C@@H](CCC(N)=O)C(=O)N[C@@H](Cc1ccc2ccccc2c1)C(=O)N[C@H](C)C(=O)N1Cc2ccccc2C[C@H]1C(=O)N[C@@H](CO)C(=O)O
B9: YW-158 (peptide)
peptide: [dY]FLP[dS]QF[dA][TP5C]S-OH
modifications: N-terminus assumed
SMILES: CC(C)C[C@H](NC(=O)[C@H](Cc1ccccc1)NC(=O)[C@H](N)Cc1ccc(O)cc1)C(=O)N1CCC[C@H]1C(=O)N[C@H](CO)C(=O)N[C@@H](CCC(N)=O)C(=O)N[C@@H](Cc1ccccc1)C(=O)N[C@H](C)C(=O)N1Cc2sccc2C[C@H]1C(=O)N[C@@H](CO)C(=O)O
B10: YW-159 (peptide)
peptide: [dY]FLP[dS]QF[dA][TP6C]S-OH
modifications: N-terminus assumed
SMILES: CC(C)C[C@H](NC(=O)[C@H](Cc1ccccc1)NC(=O)[C@H](N)Cc1ccc(O)cc1)C(=O)N1CCC[C@H]1C(=O)N[C@H](CO)C(=O)N[C@@H](CCC(N)=O)C(=O)N[C@@H](Cc1ccccc1)C(=O)N[C@H](C)C(=O)N1Cc2sccc2C[C@H]1C(=O)N[C@@H](CO)C(=O)O
B11: YW-74 (peptide)
peptide: {3‑phenylpropyl}-[dY]FLP[dS]QF[dA][Tic]S-OH
SMILES: CC(C)C[C@H](NC(=O)[C@H](Cc1ccccc1)NC(=O)[C@@H](Cc1ccc(O)cc1)NCCCc1ccccc1)C(=O)N1CCC[C@H]1C(=O)N[C@H](CO)C(=O)N[C@@H](CCC(N)=O)C(=O)N[C@@H](Cc1ccccc1)C(=O)N[C@H](C)C(=O)N1Cc2ccccc2C[C@H]1C(=O)N[C@@H](CO)C(=O)O
B12: YW-119 (peptide)
peptide: [dY]FLP[dS]Q[Bpa][dA][Tic]S-OH
modifications: N-terminus assumed
SMILES: CC(C)C[C@H](NC(=O)[C@H](Cc1ccccc1)NC(=O)[C@H](N)Cc1ccc(O)cc1)C(=O)N1CCC[C@H]1C(=O)N[C@H](CO)C(=O)N[C@@H](CCC(N)=O)C(=O)N[C@@H](Cc1ccc(C(=O)c2ccccc2)cc1)C(=O)N[C@H](C)C(=O)N1Cc2ccccc2C[C@H]1C(=O)N[C@@H](CO)C(=O)O
B13: YW-151 (peptide)
peptide: [dY]FLP[dS]QF[dA][dTi1c]S-OH
modifications: reading uncertain; also: printed as (D-Tyr)-Phe-Leu-Pro-(D-Ser)-Gln-Phe-(D-Ala)-(D-Ti1c)-Ser
B14: YW-189 (peptide)
peptide: [dY]FLP[dS]QF[dA][Tic]S-NH2
modifications: N-terminus assumed
SMILES: CC(C)C[C@H](NC(=O)[C@H](Cc1ccccc1)NC(=O)[C@H](N)Cc1ccc(O)cc1)C(=O)N1CCC[C@H]1C(=O)N[C@H](CO)C(=O)N[C@@H](CCC(N)=O)C(=O)N[C@@H](Cc1ccccc1)C(=O)N[C@H](C)C(=O)N1Cc2ccccc2C[C@H]1C(=O)N[C@@H](CO)C(N)=O

Numbered stars: 1 amine (or outer) side, 2 acyl side, 3 side chain; on linkers, the order of the positions; unused ones are H or OH. Square brackets hold non-standard residues; d marks the D form. Primed or numbered codes have the meaning given here. Ends that are not written are not given here. * marks the point of attachment. TP5C = (S)-4,5,6,7-tetrahydrothieno[2,3-c]pyridine-5-carboxylic acid, O=C([C@@H]1Cc2ccsc2CN1[*:1])[*:2]; TP6C = (S)-4,5,6,7-tetrahydrothieno[2,3-c]pyridine-6-carboxylic acid, O=C([C@@H]1Cc2ccsc2CN1[*:1])[*:2]; Bpa = N[C@@H](Cc1ccc(C(=O)c2ccccc2)cc1)C(=O)O; Diphenylacetyl = O=C(C(c1ccccc1)c1ccccc1)*; 1Nal = N[C@@H](Cc1cccc2ccccc12)C(=O)O; 2Nal = N[C@@H](Cc1ccc2ccccc2c1)C(=O)O; dNMeY = CN[C@H](Cc1ccc(O)cc1)C(=O)O; Hydrocinnamoyl = O=C(CCc1ccccc1)*; 3‑phenylpropyl = c1ccc(CCC*)cc1; Tic = O=C(O)[C@@H]1Cc2ccccc2CN1; dTic = O=C(O)[C@H]1Cc2ccccc2CN1; NMeL = CN[C@@H](CC(C)C)C(=O)O; NMeS = CN[C@@H](CO)C(=O)O; Nle = CCCC[C@H](N)C(=O)O; Thz = O=C(O)[C@@H]1CSCN1; dTi1c = not defined here; Aze = O=C(O)[C@@H]1CCN1; Nva = CCC[C@H](N)C(=O)O; Thz′ = not defined here

The assay addresses T1, human Chemokine like receptor 1. As to the kind of experiment: cell-based or functional assay.
Consider [dNMeY]F[NMeL][Thz′][dS]QF[dA][Tic][NMeS] (reading uncertain) [YW-124], for which the “EC50 (µM), activation of Tango CMKLR1-bla U2OS cells” value (“EC50 (µM), activation” for short) stood at 0.0013 µM.

In the case of B1, the “EC50 (µM), activation” value turned out to be 0.0039 µM. The result for B2 reads 0.026 µM; that for [dY]F[Nva]P[dS]QF[dA][Tic]S [YW-196], 0.039 µM; that for B3, 0.19 µM. The result for phenethylcarbamothioyl-[dY]FLP[dS]QF[dA][Tic]S-OH [YW-73] reads 0.028 µM. In the case of {5‑phenylpentanoyl}-[dY]FLP[dS]QF[dA][Tic]S-OH [YW-76] it was 0.043 µM; in that of B4, 0.034 µM.

B5: the “EC50 (µM), activation” value worked out at 0.031 µM. With B6, the “EC50 (µM), activation” value was determined as 0.021 µM.

Take [dNMeY]F[NMeL][Thz][dS]QF[dA][Tic]S [YW-123]: the “EC50 (µM), activation” value amounted to 0.001 µM. The result for {2,3‑dihydroxybenzoyl}-[dY]FLP[dS]QF[dA][Tic]S-OH [YW-127] reads 0.01 µM. Consider B7, for which the “EC50 (µM), activation” value amounted to 0.005 µM. Turning to B8, the “EC50 (µM), activation” value amounted to 0.0069 µM. B9: the “EC50 (µM), activation” value came out at 0.065 µM. For [dY]F[Nle]P[dS]QF[dA][Tic]S [YW-197], the “EC50 (µM), activation” value was 0.01 µM. The result for B10 reads 0.018 µM; that for B11, 0.0062 µM; that for [dY]FLP[dS]QF[dA][Ti1c]S-OH [YW-150], 0.062 µM.

As for {3,5‑dihydroxybenzoyl}-[dY]FLP[dS]QF[dA][Tic]S-OH [YW-79], the “EC50 (µM), activation” value was 0.0047 µM. The result for phenethylcarbamoyl-[dY]FLP[dS]QF[dA][Tic]S-OH [YW-72] reads 0.045 µM. With {4‑phenylbutanoyl}-[dY]FLP[dS]QF[dA][Tic]S-OH [YW-75], the “EC50 (µM), activation” value came to 0.05 µM. In the case of B12 it was 0.0099 µM; in that of B13, 0.027 µM. As for {4‑biphenylacetyl}-[dY]FLP[dS]QF[dA][Tic]S-OH [YW-77], the “EC50 (µM), activation” value turned out to be 0.053 µM. B14: the “EC50 (µM), activation” value worked out at 0.0068 µM.
